Six molecules from patent publication US20220340685A1 (Novartis, published 2022) can be followed below.

Where “and” joins values, the source holds several entries; their conditions need not be identical. Identical values can stand only once.

One experiment addresses T1, mouse ENTPD2 on cells (mouse, UniProt O55026 1-495).
T1 sequence: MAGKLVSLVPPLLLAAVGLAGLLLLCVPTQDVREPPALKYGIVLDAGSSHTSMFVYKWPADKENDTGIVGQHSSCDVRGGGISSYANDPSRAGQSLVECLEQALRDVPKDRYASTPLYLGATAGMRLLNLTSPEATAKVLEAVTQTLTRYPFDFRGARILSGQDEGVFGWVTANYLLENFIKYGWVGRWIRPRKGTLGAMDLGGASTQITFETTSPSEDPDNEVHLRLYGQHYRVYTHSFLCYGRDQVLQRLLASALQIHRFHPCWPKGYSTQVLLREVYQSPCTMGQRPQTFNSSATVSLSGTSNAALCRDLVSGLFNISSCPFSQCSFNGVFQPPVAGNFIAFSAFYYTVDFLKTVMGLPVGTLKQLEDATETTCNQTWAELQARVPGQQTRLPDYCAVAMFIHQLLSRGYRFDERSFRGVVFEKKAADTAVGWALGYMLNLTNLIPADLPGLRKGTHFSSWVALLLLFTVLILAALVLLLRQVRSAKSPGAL
Briefly: cell-based or functional assay.

Experiment [1] has as its target T2, recombinant human ENTPD2 (residues 29-462, Y350A mutant) used in crystallographic studies (human, UniProt Q9Y5L3 29-462, N-linked glycosylation observed at Asn129, Asn294, Asn378 and Asn443).
T2 construct: also called human ENTPD2 Y350A; hENTPD2 Y350A
T2 sequence: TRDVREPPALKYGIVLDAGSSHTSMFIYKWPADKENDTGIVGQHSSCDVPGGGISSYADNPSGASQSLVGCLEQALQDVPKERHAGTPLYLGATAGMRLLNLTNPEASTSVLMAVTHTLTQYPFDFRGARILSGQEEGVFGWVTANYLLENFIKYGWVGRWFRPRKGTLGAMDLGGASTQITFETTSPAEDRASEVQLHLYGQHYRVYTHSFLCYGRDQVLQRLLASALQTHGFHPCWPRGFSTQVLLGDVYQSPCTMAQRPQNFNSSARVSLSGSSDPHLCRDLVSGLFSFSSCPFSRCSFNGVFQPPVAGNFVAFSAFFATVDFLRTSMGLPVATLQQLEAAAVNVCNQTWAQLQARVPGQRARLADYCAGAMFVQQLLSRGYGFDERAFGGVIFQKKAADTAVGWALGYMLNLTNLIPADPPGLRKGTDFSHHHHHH
Briefly: X-ray co-crystal structure.

Experiment [2] deals with human FcγRIIIa, V158 (high affinity variant) (human, UniProt P08637 17-254). Kind of experiment: cell-based or functional assay.
Sequence of human FcγRIIIa, V158 (high affinity variant) (P08637 other isoform, or with tags, fused parts or gaps mutant limits assumed): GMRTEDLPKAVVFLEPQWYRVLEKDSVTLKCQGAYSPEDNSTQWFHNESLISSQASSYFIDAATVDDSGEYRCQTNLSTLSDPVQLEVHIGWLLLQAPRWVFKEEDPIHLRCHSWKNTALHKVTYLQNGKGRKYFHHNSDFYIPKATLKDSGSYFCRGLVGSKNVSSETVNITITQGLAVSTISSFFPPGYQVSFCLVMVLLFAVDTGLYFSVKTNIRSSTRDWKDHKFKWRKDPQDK

B1: anti-mouse ENTPD2 mAb13 (antibody, mouse IgG2a, kappa, V domains shown)
VH: QVQLVQSGAELKQPGQSVKISCKASGYTFTHYGMNWVKQAPGQGLKWMGWINTDTGNPTYADDFKGRFVFSLDTSVSTAYLQISNLKNEDTATYYCVRYGTLYSGYGFFFDSWGQGTLVTVSS
VL: DIMMTQSPSSLSVSAGEKATITCKSSQSLFNSNTNKNYLNWYLQKPGQSPKLLFYYASTRHTGVPDRFIGSGSGTDFTLTITSVQDEDLADYYCQQWYSYPWTFGPGTKLEIKR
B1: in the experiment with mouse ENTPD2 on cells, the “ENTPD2 Functional Assay IC50 (mouse ENTPD2 NIH/3T3 cell-based assay)” value (shortened to “ENTPD2 Functional Assay IC50”) was determined as 2.8 nM.

B2: anti-mouse ENTPD2 mAb14 (antibody, mouse IgG2a, kappa, V domains shown)
VH: QVQLVQSGAELKQPGQSVKISCKASGYTFWHYGMNWVKQAPGQGLKWMGWINTDTGNPTYADDFKGRFVFSLDTSVSTAYLQISNLKNEDTATYYCVRYGTLYSGYGFFFDSWGQGTLVTVSS
VL: DIMMTQSPSSLSVSAGEKATITCKSSQSLFNSNTNKNYLNWYLQKPGQSPKLLFYYASTRHTGVPDRFIGSGSGTDFTLTITSVQDEDLADYYCQQWYSYPWTFGPGTKLEIKR
In the case of B2, in the experiment with mouse ENTPD2 on cells, the “ENTPD2 Functional Assay IC50” value came out at 4.6 nM.

B3: anti-mouse ENTPD2 mAb15 (antibody, mouse IgG2a, kappa, V domains shown)
VH: QVQLVQSGAELKQPGQSVKISCKASGYTFHHYGMNWVKQAPGQGLKWMGWINTDTGNPTYADDFKGRFVFSLDTSVSTAYLQISNLKNEDTATYYCVRYGTLYSGYGFFFDSWGQGTLVTVSS
VL: DIMMTQSPSSLSVSAGEKATITCKSSQSLFNSNTNKNYLNWYLQKPGQSPKLLFYYASTRHTGVPDRFIGSGSGTDFTLTITSVQDEDLADYYCQQWYSYPWTFGPGTKLEIKR
Consider B3, for which, in the experiment with mouse ENTPD2 on cells, the “ENTPD2 Functional Assay IC50” value was 5.9 nM.

B4: anti-human ENTPD2 FAb22 (Fab, V domains shown)
VH: EVKLEQSGPGLVKPSQSLSLTCSVTGYSITSGYYWNWIRQFPGNKLEWMSYISYDGDNNYNPSLKNRISITRDTSKNQFFLKLSSVTTEDTATYYCAGGYYRYGLSYYYVMDYWGQGTSVTVSA
VL: DIKMTQSPASLAVSLGQRATISCKASQSVDYDGNSYMNWYQQKPGQPPKLLIYAASNLESGIPARFSGSGSGTDFTLNIHPVEEEDAATYYCQQSNEDPPTFGGGTKLELKR
notes: Fab with human CH1 and human kappa constant regions; CDRs of mAb16; also called anti-hENTPD2 FAb22
Take B4: in experiment [1], the binding result was “binds”.

B5: anti-human ENTPD2 mAb1 (antibody, human IgG1, kappa)
heavy: not shown
light: DIQLTQSPSSLSASVGDRVTITCSASSSVSYIHWFQQKPGKAPKLLIYSTSNLASGVPSRFSGSGSGTFFTLTISSLQPEDFATYFCHQWSSYPWTFGQGTKVEIKRTVAAPSVFIFPPSDEQLKSGTASVVCLLNNFYPREAKVQWKVDNALQSGNSQESVTEQDSKDSTYSLSSTLTLSKADYEKHKVYACEVTHQGLSSPVTKSFNRGEC
Consider B5, for which the “FcγRIIIa signaling, Jurkat NFAT-luciferase reporter cells with RKO target cells, EC50” value in experiment [2] was 17.3 nM and 2.55 µg/mL.

B6: anti-human ENTPD2 FAb23 (Fab, V domains shown)
VH: EVQLQQFGAELVKPGASVKISCKASGYTFTDYNMDWVKQSHGKSLEWIGDINPKYDISTYNQQFKGKATLTVDKSSSTAYMELRSLTSEDTAVYYCARRGFFLYYGINYYYFDVWGAGTTVTVSS
VL: QIVLTQSPAIMSASLGEEITLTCSASSSVSYIHWYQQKSGTSPTLLIYSTSNLASGVPSRFSGSGSGTFYSLTISSVEAEDAADYYCHQWSSYPWTFGGGTKLEIKR
modifications: residue 1 of the light chain observed and modeled as pyroglutamate in the crystal structure
notes: Fab with human CH1 and human kappa constant regions; variable regions of mAb17; also called anti-hENTPD2 FAb23; anti-human ENTPD2 MAB17 Fab
On to B6, for which the binding result in experiment [1] is recorded as “binds”.
